This note sets out measurements from the supplement of paper PMC12042874.

± gives the uncertainty stated by the source.

This series is described as follows: amyloid nucleation score (Sup35N fusion, yeast selection) (log enrichment); library NNK3; higher = more nucleation; inactive = no reads after selection. The essentials: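 On medium lacking adenine and uracil, psi-negative yeast expressing peptides of 20 random codons fused to Sup35N were grown 7 days at 30°C after a 24-hour induction with 100 μM copper sulfate. Illumina sequencing of input and output plasmid inserts gave the reads, and sequences under 100 input reads were excluded. The nucleation score is the DiMSum log enrichment of output over input reads, centred on the mode score of non-aggregating sequences.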
RLVVVYLGTNSTSKEDISC: the amyloid nucleation score was 0.332 ± 0.23. The entry for YFFSDNRNFRVNPVSNR is “inactive”. Take PSSSYPKSLRINMAFSFLMC: the amyloid nucleation score was 0.49 ± 0.53. Regarding SFLDMIRCDINLIYKRHRLG, the amyloid nucleation score entry is “inactive”. GASREFQTCSVGVYYVAIEK: the amyloid nucleation score result is “inactive”.

With ALPYCSLVGCYVCKCRLMWL, the amyloid nucleation score was 0.541 ± 0.34. In the case of CIPCTVTFG, the amyloid nucleation score entry is “inactive”.

In the case of CDFIDVS, the amyloid nucleation score entry is “inactive”. The figure for RSRRFGYSAAISFTIGNLNS is 1.28 ± 0.13.

On to TFYVLGLDYTWLSATSGDGS, for which the amyloid nucleation score entry was “inactive”.

Take RKHAGLYLQYE: the amyloid nucleation score result is “inactive”. As for RRKLTAMVNTGEWMSQDDGS, the amyloid nucleation score result was “inactive”. YSKEWVFISIIQKLADGQCN came in with an amyloid nucleation score of -0.182 ± 0.66. Turning to SWFSVLLGLRTSRVIANSTY, the amyloid nucleation score entry was “inactive”. The entry for ECPAALLKKIVPYKKLHGRM is “inactive”.

Consider FTVGILFGNLHLEFGVKVND, for which the amyloid nucleation score was found to be 1.6 ± 0.071.

As to GSFSCWYCEVVNVV, the amyloid nucleation score entry is “inactive”. Consider VTGEYLRMAISGCRG, for which the amyloid nucleation score entry was “inactive”. As for CTITNWHNKYC, the amyloid nucleation score result was “inactive”. For the substance SWVRMYIGEFLVSRCQMWST, the amyloid nucleation score result was “inactive”. With VTLADEDGYKFLTLVKVLTY the entry was “inactive”; with LVVKFSLDKWPRQNVSSLAS, “inactive”. On to DLWDTCCLII, for which the amyloid nucleation score entry was “inactive”. Take GKTSGCWSFFYILIS: the amyloid nucleation score is -0.388 ± 0.75.

Regarding RGTRTGPRDRTLFMSKAVRS, the amyloid nucleation score is 0.364 ± 0.39. The entry for INPYVL is “inactive”; for YTIMRNYGFLGARISRGSGS it is “inactive”.

With AGPKALIVMPKICDGDIWME, the amyloid nucleation score entry was “inactive”. In the case of NFGQTGRCYKRLRFC, the amyloid nucleation score result is “inactive”. For the substance IDIVNL, the amyloid nucleation score entry is “inactive”.

As for ANYFTPTNCSVRLRWISDPT, the amyloid nucleation score result was “inactive”. With RRRFCVKGSPGVRFVEWTLR, the amyloid nucleation score was -0.696 ± 1.1. The entry for CFIKSMRVVMVILPFAPCLK is “inactive”.

Consider CMSPYALGEISKRRVEVDSY, for which the amyloid nucleation score result was “inactive”. With TLCSHYYVV the entry was “inactive”; with HNVFST, “inactive”; with KYLVALVRVRQSNLHS, “inactive”. Turning to IFYDNADTSKMNHISH, the amyloid nucleation score entry was “inactive”.

With WSCNISYTLLSMGRRLYSRR, the amyloid nucleation score result is “inactive”. With REAYDLFSCIDYVLNFMFNY, the amyloid nucleation score result is “inactive”. With SKTFNDPFLLNHLNTFIKPR the figure was -0.259 ± 0.93; with LRNTFKCVTIRALGSKGGRA, “inactive”. With AEMDRRATFTGDHGDGFAIV the entry was “inactive”; with GRRYVLEENSVIISWCVIYY, “inactive”; with VVSVLLDTI, “inactive”. For the substance SAQPESY, the amyloid nucleation score result was “inactive”. TSFWGGALEDSATITLECWF registered an amyloid nucleation score of -0.24 ± 1.3. With RLTVYISQRKKHHCLMERSH the figure was 0.221 ± 0.33; with VYCLRWKLYMLNEVS, “inactive”. The entry for EQLISTSPLCVFIGFLVVLY is “inactive”. Regarding YTSGLVNFVVMDPGL, the amyloid nucleation score result is “inactive”. With EWSLKIVTMNMASWM the entry was “inactive”; with IQNANVRHYKRHRKFLTFIS, 1.27 ± 0.11. On to YSVNMLFAAS, for which the amyloid nucleation score result was “inactive”.

For LARMTCYSDCGSNRGLRRVG, the amyloid nucleation score result is “inactive”. As for SYGTSGCRRLVLWTYDSKFI, the amyloid nucleation score result was “inactive”. The entry for RVFHP is “inactive”.

On to SMHARGDL, for which the amyloid nucleation score result is “inactive”. Consider FAAAFDRGQGKS, for which the amyloid nucleation score entry is “inactive”.

LSGANYLLIRNEGM: the amyloid nucleation score result was “inactive”. On to YKVKIPMVCAVISGKSTWVG, for which the amyloid nucleation score entry was “inactive”. With YFMCREMALILEHLCEAGWC the entry was “inactive”; with LNYVIVDSLDKVVQITREYS, “inactive”; with TMLRFIYSYDAFRR, 0.931 ± 0.22. The figure for YMGYWFKFFTFSGDQVTIGR is 0.718 ± 0.14; for TVLCFSACQENFSSSLRRLY it is “inactive”. Turning to RLHTMWTYP, the amyloid nucleation score result is “inactive”. Regarding YCKSPVSANMHMNNGNTGSC, the amyloid nucleation score result was “inactive”. On to RRKWHEYSVVMSRTNHMCIW, for which the amyloid nucleation score is -0.118 ± 0.58.

LNPVKKLLGRLSGSREG: the amyloid nucleation score entry is “inactive”. The entry for ELLWNLRGNFDIDLGSFIRT is “inactive”; for YGILLFGVSWWWAVSFFENF it is “inactive”. With FIIDVLTMASTLGCSVQN the entry was “inactive”; with NLENVLFRDRYQSSTCKLCK, “inactive”; with LNPVRSYSKNNIYLLTMLAL, “inactive”. With PDHEMGSHLLV the entry was “inactive”; with SFFLDILRVWYYNVPNVPAR, “inactive”.

Turning to WWRDGDIRCKTSLNLGKRSF, the amyloid nucleation score entry is “inactive”. Take YCCIFRRFNGKNFFSCRG: the amyloid nucleation score entry was “inactive”.

Consider FGWVFLYDKLIPVKPFELYF, for which the amyloid nucleation score result was “inactive”. The entry for SYRPMHTDGLSLYSRQNLSY is “inactive”; for YSKFFTENVYNSISGAMPHF it is “inactive”. With STVSYGVGHQNM the entry was “inactive”. CGDAPRQVVVGPRYKRSMES displayed an amyloid nucleation score of -0.193 ± 0.65.

CIFTIFNYQTLIELSHYFSR yielded an amyloid nucleation score of 1.82 ± 0.067. QSDRVPRILLGKRFKSPLSF: the amyloid nucleation score result is “inactive”. Regarding RKGLL, the amyloid nucleation score entry was “inactive”.

With YPHREQVRRSL, the amyloid nucleation score entry was “inactive”.

In turn, VWVTVRCLNYRPSYMPYRTR registered an amyloid nucleation score of 0.651 ± 0.32. The figure for IDLVVSQVWQSTGAVVALWH is -0.301 ± 0.83; for FLSLIKM it is 0.39 ± 0.2.

AVVSIVVLRDKRTFLGRLYL returned an amyloid nucleation score of 1.53 ± 0.087.

Substance ELRQMTRVSVLASYTWSTTL gave an amyloid nucleation score of -0.014 ± 0.46.

YVRIQRMRFYSCEHWVHHIG: the amyloid nucleation score result was “inactive”.

WPLYGLDWNPLGFNLRWYKF: the amyloid nucleation score entry is “inactive”.

Turning to PVGHSSMSLYRGR, the amyloid nucleation score result is “inactive”. Take EGTKEF: the amyloid nucleation score result is “inactive”. With SCGACLKEGRSG the entry was “inactive”; with VSYKKDCMQTSLRLVITF, “inactive”.

On to SSYLDTNWRMP, for which the amyloid nucleation score entry was “inactive”. MNTACS: the amyloid nucleation score result is “inactive”. The entry for LLIGSGVSYFKTWFARHLTA is “inactive”; for ALLKD it is “inactive”; for SGCGLMQNGMSCLIEFTVAK it is “inactive”. As to IRQVLCCESLRLGSYMQINT, the amyloid nucleation score entry is “inactive”. As for MRFSKGNYLYMREGHKGFCG, the amyloid nucleation score entry is “inactive”. With LSYNRKEYGNRPGFSEYSST the entry was “inactive”; with LQKGGNITCTVNHFMWVFAH, 0.592 ± 0.32; with FDLWNIILVYIPVNACC, 0.735 ± 0.11. For SSFPYFTTYVHHVG, the amyloid nucleation score entry was “inactive”. As to SVGHSFERKWSGCHWEISNL, the amyloid nucleation score result was “inactive”. The figure for GTQCWLILCADNLNVLGIGL is 2.58 ± 0.065. The entry for LKMSLPYNMMVIILKRGGAY is “inactive”; for SALVLPRSVSVDLIGVWDFK it is “inactive”; for HILFLYRDLVILVLCSSHPC it is “inactive”. The figure for CVFLCDDWFGFCNLNRRFKG is 2.82 ± 0.074; for VCGAVSKPLWIRCTVDPRGR it is “inactive”. Turning to VEYLFVNCWSTE, the amyloid nucleation score entry is “inactive”. With LDFSPWKFSTVGSRSSGMNG, the amyloid nucleation score entry was “inactive”. The entry for STWTG is “inactive”; for FPWSSRATRSGEVTV it is “inactive”; for YTPGLPSDFN it is “inactive”.

Regarding HVFPVIAPYRLMLNLKWFVY, the amyloid nucleation score entry is “inactive”. With ASAYSTYKVERLGFDGVQSS, the amyloid nucleation score entry is “inactive”. On to CFAIYSLLYRVR, for which the amyloid nucleation score is 1.55 ± 0.074. The entry for ASQSSVLPWNS is “inactive”.

For NRTSLCKEDLVRVSFDGYLL, the amyloid nucleation score result was “inactive”. The figure for AFKNYVPMFTW is -0.335 ± 0.73; for WLGPYVLHSSAGSGMVDNGT it is “inactive”; for DLCAEFWIYWHVTMPVYLEM it is “inactive”. The entry for QSLSVEH is “inactive”.
